Reference: article PMC5513711, “Noroviruses Co-opt the Function of Host Proteins VAPA and VAPB for Replication via a Phenylalanine–Phenylalanine-Acidic-Tract-Motif Mimic in Nonstructural Viral Protein NS1/2” (mBio, 2017)
Like-named read-outs stand apart in the source and are kept apart here.

How the values were obtained:
[1] = molecular target: VAPA (mammalian 2-hybrid construct) (UniProt Q9WV55); experiment: mammalian 2-hybrid (M2H); conditions: n = 3; for response: parent: est. 170, read off a plot
[2] = molecular target: NS1/2^MNoV (strain not told; partner of the VAPA mutants in Fig. 4A and 4C); experiment: mammalian 2-hybrid (M2H); conditions: for response: read off a plot
[3] = molecular target: the molecule itself; experiment: SEC + other: diffusion NMR; VAPA 8-226 in solution; dimer
[4] = molecular target: the molecule itself; experiment: not stated; VAPA 133-226 in solution; dimeric size, method not given

Chain of VAPA (mammalian 2-hybrid construct) (Q9WV55 whole entry): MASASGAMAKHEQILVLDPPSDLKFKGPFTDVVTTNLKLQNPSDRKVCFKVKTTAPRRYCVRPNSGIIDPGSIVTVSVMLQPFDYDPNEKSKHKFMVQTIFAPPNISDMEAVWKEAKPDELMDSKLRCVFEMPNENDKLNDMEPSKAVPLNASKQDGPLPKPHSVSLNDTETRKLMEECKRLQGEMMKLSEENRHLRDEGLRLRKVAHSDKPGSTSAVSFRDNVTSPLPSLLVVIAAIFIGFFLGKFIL

Molecule	other: Fold Change [1]	response [1]	other: Fold Change ([2]; n = 3)	response ([2]; n = 3, parent: est. 170)	further results
NS1/2^MNoV of strain CR6 (mammalian 2-hybrid construct) D43A	1.35	40 %fluc/Rluc	–	–	–
NS1/2^MNoV of strain CR6 (mammalian 2-hybrid construct) D43K	1.07	30 %fluc/Rluc	–	–	–
NS1/2^MNoV of strain CR6 (mammalian 2-hybrid construct) D121G	7.91	180 %fluc/Rluc	–	–	–
NS1/2^MNoV of strain CR6 (mammalian 2-hybrid construct) D131G	7.98	180 %fluc/Rluc	–	–	–
NS1/2^MNoV of strain CR6 (mammalian 2-hybrid construct) E40A	2.13	62 %fluc/Rluc	–	–	–
NS1/2^MNoV of strain CR6 (mammalian 2-hybrid construct) E40K	1.31	45 %fluc/Rluc	–	–	–
NS1/2^MNoV of strain CR6 (mammalian 2-hybrid construct) E42A	1.22	30 %fluc/Rluc	–	–	–
NS1/2^MNoV of strain CR6 (mammalian 2-hybrid construct) E42K	1.04	28 %fluc/Rluc	–	–	–
NS1/2^MNoV of strain CR6 (mammalian 2-hybrid construct) E44A	1.78	55 %fluc/Rluc	–	–	–
NS1/2^MNoV of strain CR6 (mammalian 2-hybrid construct) E44K	0.95	30 %fluc/Rluc	–	–	–
NS1/2^MNoV of strain CR6 (mammalian 2-hybrid construct) E52K	1.63	30 %fluc/Rluc	–	–	–
NS1/2^MNoV of strain CR6 (mammalian 2-hybrid construct) E54K	3.92	90 %fluc/Rluc	–	–	–
NS1/2^MNoV of strain CR6 (mammalian 2-hybrid construct) H69L	8.14	180 %fluc/Rluc	–	–	–
NS1/2^MNoV of strain CR6 (mammalian 2-hybrid construct) M48A	12.8	190 %fluc/Rluc	–	–	–
NS1/2^MNoV of strain CR6 (mammalian 2-hybrid construct) M48D	6.37	180 %fluc/Rluc	–	–	–
NS1/2^MNoV of strain CR6 (mammalian 2-hybrid construct) M48G	11.7	250 %fluc/Rluc	–	–	–
NS1/2^MNoV of strain CR6 (mammalian 2-hybrid construct) M48I	5.16	150 %fluc/Rluc	–	–	–
NS1/2^MNoV of strain CR6 (mammalian 2-hybrid construct) M48L	10.8	300 %fluc/Rluc	–	–	–
NS1/2^MNoV of strain CR6 (mammalian 2-hybrid construct) N46C	7.96	220 %fluc/Rluc	–	–	–

Molecule	other: Fold Change [1]	response [1]	other: Fold Change ([2]; n = 3)	response ([2]; n = 3, parent: est. 170)	further results
NS1/2^MNoV of strain CR6 (mammalian 2-hybrid construct) N46D	10.3	290 %fluc/Rluc	–	–	–
NS1/2^MNoV of strain CR6 (mammalian 2-hybrid construct) N46G	10.8	300 %fluc/Rluc	–	–	–
NS1/2^MNoV of strain CR6 (mammalian 2-hybrid construct) S41G	–	40 %fluc/Rluc	–	–	–
NS1/2^MNoV of strain CR6 (mammalian 2-hybrid construct) T49A	1.55	50 %fluc/Rluc	–	–	–
NS1/2^MNoV of strain CR6 (mammalian 2-hybrid construct) T49G	1.35	30 %fluc/Rluc	–	–	–
NS1/2^MNoV of strain CR6 (mammalian 2-hybrid construct) V45A	8.72	250 %fluc/Rluc	–	–	–
NS1/2^MNoV of strain CR6 (mammalian 2-hybrid construct) V45G	8.32	240 %fluc/Rluc	–	–	–
NS1/2^MNoV of strain CR6 (mammalian 2-hybrid construct) V45I	5.53	100 %fluc/Rluc	–	–	–
NS1/2^MNoV of strain CR6 (mammalian 2-hybrid construct) Y47A	1.55	45 %fluc/Rluc	–	–	–
NS1/2^MNoV of strain CR6 (mammalian 2-hybrid construct) Y47G	1.25	30 %fluc/Rluc	–	–	–
VAPA (mammalian 2-hybrid construct) (from UniProt Q9WV55) C60A	–	–	3.9	61 %fluc/Rluc	–
VAPA (mammalian 2-hybrid construct) (from UniProt Q9WV55) D123A	–	–	8.18	110 %fluc/Rluc	–
VAPA (mammalian 2-hybrid construct) (from UniProt Q9WV55) H195E; R197E	–	–	–	–	other: Fold Change [2]: 3.28; response ([2]; parent: est. 140): 85 %fluc/Rluc
VAPA (mammalian 2-hybrid construct) (from UniProt Q9WV55) K50A	–	–	3.11	69 %fluc/Rluc	–
VAPA (mammalian 2-hybrid construct) (from UniProt Q9WV55) K50E	–	–	2.26	41 %fluc/Rluc	–
VAPA (mammalian 2-hybrid construct) (from UniProt Q9WV55) K50E; K52E	–	–	–	–	other: Fold Change [2]: 1.29; response ([2]; parent: est. 140): 38 %fluc/Rluc
VAPA (mammalian 2-hybrid construct) (from UniProt Q9WV55) K52A	–	–	1.4	35 %fluc/Rluc	–
VAPA (mammalian 2-hybrid construct) (from UniProt Q9WV55) K52E	–	–	1.38	32 %fluc/Rluc	–
VAPA (mammalian 2-hybrid construct) (from UniProt Q9WV55) K94A	–	–	1.74	42 %fluc/Rluc	–

Molecule	other: Fold Change [1]	response [1]	other: Fold Change ([2]; n = 3)	response ([2]; n = 3, parent: est. 170)	further results
VAPA (mammalian 2-hybrid construct) (from UniProt Q9WV55) K94A; M96A	–	–	–	–	other: Fold Change [2]: 0.95; response ([2]; parent: est. 140): 27 %fluc/Rluc
VAPA (mammalian 2-hybrid construct) (from UniProt Q9WV55) K94E	–	–	1.2	38 %fluc/Rluc	–
VAPA (mammalian 2-hybrid construct) (from UniProt Q9WV55) K125A	–	–	1.67	27 %fluc/Rluc	–
VAPA (mammalian 2-hybrid construct) (from UniProt Q9WV55) K125E	–	–	1.47	27 %fluc/Rluc	–
VAPA (mammalian 2-hybrid construct) (from UniProt Q9WV55) K125E; R127E	–	–	–	–	other: Fold Change [2]: 0.84; response ([2]; parent: est. 140): 23 %fluc/Rluc
VAPA (mammalian 2-hybrid construct) (from UniProt Q9WV55) K161E; H163E	–	–	–	–	other: Fold Change [2]: 2.43; response ([2]; parent: est. 140): 80 %fluc/Rluc
VAPA (mammalian 2-hybrid construct) (from UniProt Q9WV55) M96A	–	–	2.72	63 %fluc/Rluc	–
VAPA (mammalian 2-hybrid construct) (from UniProt Q9WV55) N64A	–	–	3.82	100 %fluc/Rluc	–
VAPA (mammalian 2-hybrid construct) (from UniProt Q9WV55) R62A	–	–	3.26	80 %fluc/Rluc	–
VAPA (mammalian 2-hybrid construct) (from UniProt Q9WV55) R62E	–	–	1.64	34 %fluc/Rluc	–
VAPA (mammalian 2-hybrid construct) (from UniProt Q9WV55) R127A	–	–	3.1	77 %fluc/Rluc	–
VAPA (mammalian 2-hybrid construct) (from UniProt Q9WV55) R127E	–	–	2.53	40 %fluc/Rluc	–
VAPA (mammalian 2-hybrid construct) (from UniProt Q9WV55) R202E; R204E	–	–	–	–	other: Fold Change [2]: 2.78; response ([2]; parent: est. 140): 74 %fluc/Rluc
VAPA (mammalian 2-hybrid construct) (from UniProt Q9WV55) T53A	–	–	2.94	75 %fluc/Rluc	–
VAPA (mammalian 2-hybrid construct) (from UniProt Q9WV55) T54A	–	–	1.78	44 %fluc/Rluc	–
VAPA (mammalian 2-hybrid construct) (from UniProt Q9WV55) V51A	–	–	1.66	32 %fluc/Rluc	–
VAPA (mammalian 2-hybrid construct) (from UniProt Q9WV55) V61A	–	–	7.18	190 %fluc/Rluc	–
VAPA MSP domain with linker and coiled-coil domain (8–226) (domain or fragment, murine VAPA, MSP domain with linker and coiled-coil domain, residues 8-226; Natural abundance (unlabeled) in the titrations of 15N NS1; also called VAPA (M8–S226 of VAPA); unlabeled VAPA; source: E. coli, purified) MAKHEQILVLDPPSDLKFKGPFTDVVTTNLKLQNPSDRKVCFKVKTTAPRRYCVRPNSGIIDPGSIVTVSVMLQPFDYDPNEKSKHKFMVQTIFAPPNISDMEAVWKEAKPDELMDSKLRCVFEMPNENDKLNDMEPSKAVPLNASKQDGPLPKPHSVSLNDTETRKLMEECKRLQGEMMKLSEENRHLRDEGLRLRKVAHSDKPGSTSAVSFRDNVTS	–	–	–	–	stoichiometry N [3]: 2
VAPA fragment (133–226), isolated coiled-coil domain (domain or fragment, murine VAPA, linker and coiled-coil domain, residues 133-226; also called coiled-coil domain (P133–S226 of VAPA); CCD; source: E. coli, purified) PNENDKLNDMEPSKAVPLNASKQDGPLPKPHSVSLNDTETRKLMEECKRLQGEMMKLSEENRHLRDEGLRLRKVAHSDKPGSTSAVSFRDNVTS	–	–	–	–	stoichiometry N [4]: 2
